PMC5750214

How the values were obtained:
[1] = target: mouse aortic AT1a receptor (mouse (endogenous in aorta)) (UniProt P29754); assay: radioligand binding; saturation: [125I]-Ang II on the aortic membrane fraction of WT control mice; non-specific binding subtracted
[2] = target: mouse aortic AT1a receptor (mouse (endogenous in aorta)) (UniProt P29754); assay: radioligand binding; saturation: [125I]-Ang II on the aortic membrane fraction of WT mice with HHcy (fed Hcy); non-specific binding subtracted

Chain of mouse aortic AT1a receptor (mouse (endogenous in aorta)) (P29754 whole entry): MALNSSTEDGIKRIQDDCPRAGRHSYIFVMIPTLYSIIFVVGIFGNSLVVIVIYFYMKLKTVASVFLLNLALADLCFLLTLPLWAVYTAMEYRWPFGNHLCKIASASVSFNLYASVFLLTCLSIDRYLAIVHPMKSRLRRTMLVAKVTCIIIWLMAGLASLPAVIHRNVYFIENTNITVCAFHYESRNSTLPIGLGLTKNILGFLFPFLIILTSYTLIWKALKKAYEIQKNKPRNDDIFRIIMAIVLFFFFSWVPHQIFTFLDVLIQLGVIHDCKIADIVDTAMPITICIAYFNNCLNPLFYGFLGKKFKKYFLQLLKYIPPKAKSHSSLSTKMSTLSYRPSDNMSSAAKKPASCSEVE

Kd [1]: 36.4 nM
Kd [2]: 43.2 nM
Substance: [125I]-Angiotensin II (peptide)
